Data reported in patent US20230242871A1, “GENERATION OF PRIMORDIAL GERM CELLS AND METHODS OF USING THE SAME” (The Board of Trustees of the Leland Stanfor Junior …, priority 2020, published 2023).

Test system: NANOS3-mCherry hESCs
Assay: PGC differentiation of NANOS3-mCherry hESCs, flow cytometry for NANOS3-mCherry fluorescent reporter expression
Format: cell-based, human
Source text: In the NANOS3-mCherry hESC line, a 2A-mCherry fluorescent reporter was inserted immediately downstream of the NANOS3 gene without disrupting its coding sequence (Irie et al., 2014). In the SOX17-GFP hESC line, a GFP fluorescent reporter was inserted immediately after the SOX17 start codon, thus functionally invalidating one SOX17 allele (Wang et al., 2011). In the NANOG-2A-YFP hESC line, Cas9 RNP/AAV6-based genome editing (Martin et al., 2019) was used to insert a 2A-iCaspase9-2A-YFP fluorescent reporter immediately downstream of the NANOG gene without disrupting the NANOG coding sequence.
hPSC differentiation into PGCs. Undifferentiated hPSCs were maintained in mTeSR1 + 1% penicillin/streptomycin and enzymatically passaged (Accutase, 1:8-1:12 split) for differentiation. After overnight recovery in mTeSR1 + Thiazovivin (ROCK inhibitor, 5 µM), the following morning, hPSCs were briefly washed (DMEM/F12) and differentiated into posterior epiblast for 12 hours (100 ng/mL Activin + 3 µM CHIR99021 + 10 µM Y-27632) in aRB27 basal media, which comprised Advanced RPMI 1640 medium supplemented with 1% B27 supplement, 0.1 mM non-essential amino acids (NEAA), 100 U/ml Penicillin + 0.1 mg/ml Streptomycin, and 2 mM L-Glutamine (Kobayashi et al., 2017). Subsequently, […], […], […], 100 ng/mL SCF, 50 ng/mL EGF, 1 µM XAV939, and 10 µM Y-27632 for 24 hours (all in aRB27 basal media). For comparison, published PGC differentiation protocols (Sasaki et al., 2015; Kobayashi et al., 2017) were performed as described previously.
Flow cytometry and fluorescence-activated cell sorting (FACS) for cell-surface marker expression. hPSCs or their differentiated derivatives were dissociated using TrypLE Express (Gibco), were washed off the plate with FACS buffer (PBS + 0.1% BSA fraction V [Gibco] + 1 mM EDTA [Gibco] + 1% penicillin/streptomycin [Gibco]) and were pelleted by centrifugation (5 mins, 4° C.). Subsequently, cell pellets were directly resuspended in FACS buffer containing pre-diluted primary antibodies (listed below), thoroughly triturated to ensure a single cell suspension, and primary antibody staining was conducted for 30 mins on ice. Afterwards, cells were washed with an excess of FACS buffer and pelleted again, and this was conducted one more time. Finally, washed cell pellets were resuspended in FACS buffer containing 1.1 µM DAPI (Biolegend), and were strained through a 35 µm filter. Flow cytometry and sorting was conducted on a BD FACSAria II (Stanford Stem Cell Institute FACS Core).

B1: BMP4: bone morphogenetic protein 4, UniProt P12644 (protein, UniProt P12644 293-408, looked up)
Bone morphogenetic protein 4: SPKHHSQRARKKNKNCRRHSLYVDFSDVGWNDWIVAPPGYQAFYCHGDCPFPLADHLNSTNHAIVQTLVNSVNSSIPKACCVPTELSAISMLYLDEYDKVVLKNYQEMVVEGCGCR
BMP4 subtraction from D1.5-2.5, in BMP4 + SCF + EGF + XAV939 + Y-27632 D0.5-3.5, readout D3.5, FIG. 5C
  efficiency upon BMP4 subtraction: enhance efficiency
BMP4 titrated to 20 ng/mL on D0.5-3.5, monolayer, readout D3.5, FIG. 5D
  efficiency on BMP4 titration: without significant loss in efficiency
Continuous BMP4 in second phase, FIG. 5C
  differentiation of PGCs, BMP4 not omitted: about 10%
Omitting BMP4 from the culture media for 24 hrs at day 2 of differentiation, FIG. 5C
  differentiation of PGCs, BMP4 omitted: ~30%
